Source: patent US20180092966A1 (CSL, published 2018)
Residue numbers refer to the chain shown, from its start. In names and notes the source's numbering stands. Blank lines part the entries; values can stand above or below the binder they belong to.

Experiments:
[1] = molecular target: T1, VWF-FP P1079C mutant (albumin-fused von Willebrand Factor) (human); assay: covalent-FVIII ELISA over FVIII activity assay
T1 construct: also called VWF-FP mutant P1079C; Cys residue at VWF aa position 1079; not shown: linker between VWF and albumin, made in analogy to WO 2009/156137
T1 sequence (chain, as listed by the source P1079C P1079C): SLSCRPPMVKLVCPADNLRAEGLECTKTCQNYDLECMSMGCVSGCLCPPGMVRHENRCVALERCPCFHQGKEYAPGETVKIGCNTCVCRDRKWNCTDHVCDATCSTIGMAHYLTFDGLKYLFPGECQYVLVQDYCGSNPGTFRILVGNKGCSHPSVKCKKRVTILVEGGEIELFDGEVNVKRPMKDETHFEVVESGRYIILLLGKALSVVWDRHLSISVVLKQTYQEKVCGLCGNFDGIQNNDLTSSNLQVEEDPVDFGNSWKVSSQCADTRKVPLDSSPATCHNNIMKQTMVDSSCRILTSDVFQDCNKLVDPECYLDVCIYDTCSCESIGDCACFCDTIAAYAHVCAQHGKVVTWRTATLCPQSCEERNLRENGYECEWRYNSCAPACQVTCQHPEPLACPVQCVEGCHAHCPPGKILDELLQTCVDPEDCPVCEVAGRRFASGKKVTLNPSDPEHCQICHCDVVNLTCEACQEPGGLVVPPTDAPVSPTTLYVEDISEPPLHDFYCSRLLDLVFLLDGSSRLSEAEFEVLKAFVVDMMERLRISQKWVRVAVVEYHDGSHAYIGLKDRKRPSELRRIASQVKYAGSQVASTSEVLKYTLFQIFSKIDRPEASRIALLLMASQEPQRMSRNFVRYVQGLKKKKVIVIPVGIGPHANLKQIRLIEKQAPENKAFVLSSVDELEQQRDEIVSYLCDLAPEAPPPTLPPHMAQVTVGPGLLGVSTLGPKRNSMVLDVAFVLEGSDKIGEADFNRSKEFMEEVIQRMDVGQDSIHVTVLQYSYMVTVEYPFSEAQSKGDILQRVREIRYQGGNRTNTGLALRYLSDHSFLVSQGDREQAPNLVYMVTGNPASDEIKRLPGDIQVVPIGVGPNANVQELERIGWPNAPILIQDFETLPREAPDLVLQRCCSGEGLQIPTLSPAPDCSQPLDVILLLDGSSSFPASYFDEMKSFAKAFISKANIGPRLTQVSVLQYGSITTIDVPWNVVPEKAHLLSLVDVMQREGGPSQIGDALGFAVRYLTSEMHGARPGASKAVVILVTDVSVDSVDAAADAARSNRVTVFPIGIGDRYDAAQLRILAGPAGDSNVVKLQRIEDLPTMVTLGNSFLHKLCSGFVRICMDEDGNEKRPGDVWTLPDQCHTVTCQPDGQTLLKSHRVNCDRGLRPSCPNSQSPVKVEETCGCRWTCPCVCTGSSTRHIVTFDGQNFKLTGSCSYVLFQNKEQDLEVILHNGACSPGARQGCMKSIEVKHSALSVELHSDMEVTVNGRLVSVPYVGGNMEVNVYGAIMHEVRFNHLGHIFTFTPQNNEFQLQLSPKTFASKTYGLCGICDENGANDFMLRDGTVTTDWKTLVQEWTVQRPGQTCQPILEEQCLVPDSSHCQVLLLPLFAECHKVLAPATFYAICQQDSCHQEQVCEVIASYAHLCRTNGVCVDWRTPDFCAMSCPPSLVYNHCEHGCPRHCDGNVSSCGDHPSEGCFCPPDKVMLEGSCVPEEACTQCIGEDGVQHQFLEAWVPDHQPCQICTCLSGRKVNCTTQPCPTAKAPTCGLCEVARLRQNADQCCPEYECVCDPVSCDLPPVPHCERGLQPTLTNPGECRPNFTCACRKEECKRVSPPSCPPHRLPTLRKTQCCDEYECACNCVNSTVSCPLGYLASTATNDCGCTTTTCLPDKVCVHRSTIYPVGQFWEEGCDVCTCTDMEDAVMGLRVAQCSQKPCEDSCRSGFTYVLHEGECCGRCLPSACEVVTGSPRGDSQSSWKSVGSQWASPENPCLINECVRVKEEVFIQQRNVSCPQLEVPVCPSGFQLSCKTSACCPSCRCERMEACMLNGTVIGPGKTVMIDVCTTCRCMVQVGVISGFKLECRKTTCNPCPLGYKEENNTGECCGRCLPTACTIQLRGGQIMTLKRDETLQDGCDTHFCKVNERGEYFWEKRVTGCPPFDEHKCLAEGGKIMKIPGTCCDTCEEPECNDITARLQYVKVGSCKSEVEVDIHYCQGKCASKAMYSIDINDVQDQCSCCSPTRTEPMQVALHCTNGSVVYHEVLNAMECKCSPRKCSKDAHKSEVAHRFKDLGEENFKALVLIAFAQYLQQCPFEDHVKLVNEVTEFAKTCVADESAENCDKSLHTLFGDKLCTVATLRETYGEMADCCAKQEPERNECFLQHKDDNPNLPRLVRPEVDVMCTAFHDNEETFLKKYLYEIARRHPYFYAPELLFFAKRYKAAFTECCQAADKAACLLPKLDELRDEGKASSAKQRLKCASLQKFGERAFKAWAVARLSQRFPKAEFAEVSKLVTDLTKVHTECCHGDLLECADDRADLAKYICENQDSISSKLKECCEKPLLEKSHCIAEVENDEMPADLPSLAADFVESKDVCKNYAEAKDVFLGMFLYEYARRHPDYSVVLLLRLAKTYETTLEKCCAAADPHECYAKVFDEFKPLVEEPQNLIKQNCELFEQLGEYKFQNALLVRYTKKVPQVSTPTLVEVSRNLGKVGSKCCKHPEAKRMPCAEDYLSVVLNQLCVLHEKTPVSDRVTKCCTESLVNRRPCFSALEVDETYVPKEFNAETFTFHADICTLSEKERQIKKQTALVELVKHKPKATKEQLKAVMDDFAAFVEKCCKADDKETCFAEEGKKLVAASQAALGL

[2] = molecular target: T2, VWF-FP N1134C mutant (albumin-fused von Willebrand Factor) (human); assay: covalent-FVIII ELISA over FVIII activity assay
T2 construct: Stably expressed in CHO cells with furin co-transfected; also called VWF-FP mutant N1134C; Cys residue at VWF aa position 1134; not shown: linker between VWF and albumin, made in analogy to WO 2009/156137
T2 sequence (chain, as listed by the source N1134C N1134C): as the sequence (chain, as listed by the source P1079C P1079C) above, with C316P, N371C counted along it

[3] = molecular target: T1, VWF-FP P1079C mutant (albumin-fused von …); assay: covalent-FVIII ELISA over FVIII antigen ELISA
[4] = molecular target: T2, VWF-FP N1134C mutant (albumin-fused von …); assay: covalent-FVIII ELISA over FVIII antigen ELISA
[5] = molecular target: T1, VWF-FP P1079C mutant (albumin-fused von …); assay: ELISA of co-expression supernatant: anti-VWF capture, 350 mM CaCl2 wash, anti-FVIII detection
Method: (§1) Cell culture supernatant samples (10 ml) from transient transfections were concentrated with Amicon Ultracell-30K (Millipore UFC903024; 3000 g centrifugation). FVIII covalently attached to VWF-FP in culture supernatant (concentrates) was determined by a standard ELISA. Briefly, microplates were incubated with 100 μL per well of the capture antibody (rabbit anti human VWF-IgG, Dako A0082 [Dako, Hamburg, Germany], diluted 1:2000 in buffer A [Sigma C3041, Sigma-Aldrich, Munich, Germany]) overnight at ambient temperature. After washing plates three times with buffer B (Sigma T9039), each well was incubated with 200 μL buffer C (Sigma T6789) for 1.5 hours at ambient temperature (blocking). After another three wash steps with buffer B, serial dilutions of the test sample in buffer B as well as serial dilutions of a control preparation of covalently linked FVIII-VWF-FP, (2.0-0.03 arbitrary U/ml in buffer B (we call these “arbitrary units” as they may not correspond to the standard FVIII units as determined using Standard Human Plasma); volumes per well: 100 μL) were incubated for 1.5 hours at ambient temperature. After three wash steps with buffer B, 200 μL of 350 mM CaCl₂ were added to each well and incubated for 1 hour at ambient temperature. CaCl₂ was removed (without washing) and additional 200 μl were added to each well and incubated further for 1 hour. After three wash steps with buffer B 100 μL of a 1:2 dilution in buffer B of the detection antibody (Detecting Antibody for FVIII:C, peroxidase labelled, Cedarlane CL20035K-D) were added to each well and incubated for 1 hour at ambient temperature. After three wash steps with buffer B, 100 μL of substrate solution (OUVF, Siemens Healthcare Diagnostics) were added per well and incubated for 15 minutes at ambient temperature in the dark. Addition of 100 μL undiluted stop dilution (OSFA, Siemens Healthcare Diagnostics) prepared the samples for reading in a suitable microplate reader at 450 nm wavelength. Concentrations of the test samples were then calculated using the standard curve with the control preparation.

[6] = molecular target: T2, VWF-FP N1134C mutant (albumin-fused von …); assay: as above
Method: as §1

[7] = molecular target: T3, VWF-FP R768C mutant (albumin-fused von Willebrand Factor) (human); assay: covalent-FVIII ELISA over FVIII activity assay
T3 construct: Stably expressed in CHO cells with furin co-transfected; also called VWF-FP mutant R768C; Cys residue at VWF aa position 768; not shown: linker between VWF and albumin, made in analogy to WO 2009/156137
T3 sequence (chain, as listed by the source R768C R768C): as the sequence (chain, as listed by the source P1079C P1079C) above, with R5C, C316P counted along it

[8] = molecular target: T4, VWF-FP E1015C mutant (albumin-fused von Willebrand Factor) (human); assay: covalent-FVIII ELISA over FVIII activity assay
T4 construct: Stably expressed in CHO cells with furin co-transfected; also called VWF-FP mutant E1015C; Cys residue at VWF aa position 1015; not shown: linker between VWF and albumin, made in analogy to WO 2009/156137
T4 sequence (chain, as listed by the source E1015C E1015C): as the sequence (chain, as listed by the source P1079C P1079C) above, with E252C, C316P counted along it

[9] = molecular target: T5, VWF-FP K1116C mutant (albumin-fused von Willebrand Factor) (human); assay: covalent-FVIII ELISA over FVIII activity assay
T5 construct: Stably expressed in CHO cells with furin co-transfected; also called VWF-FP mutant K1116C; Cys residue at VWF aa position 1116; not shown: linker between VWF and albumin, made in analogy to WO 2009/156137
T5 sequence (chain, as listed by the source K1116C K1116C): as the sequence (chain, as listed by the source P1079C P1079C) above, with C316P, K353C counted along it

[10] = molecular target: T3, VWF-FP R768C mutant (albumin-fused von …); assay: covalent-FVIII ELISA over FVIII antigen ELISA
[11] = molecular target: T4, VWF-FP E1015C mutant (albumin-fused von …); assay: covalent-FVIII ELISA over FVIII antigen ELISA
[12] = molecular target: T5, VWF-FP K1116C mutant (albumin-fused von …); assay: covalent-FVIII ELISA over FVIII antigen ELISA
[13] = molecular target: T3, VWF-FP R768C mutant (albumin-fused von …); assay: ELISA of co-expression supernatant: anti-VWF capture, 350 mM CaCl2 wash, anti-FVIII detection
Method: as §1

[14] = molecular target: T4, VWF-FP E1015C mutant (albumin-fused von …); assay: as above
Method: as §1

[15] = molecular target: T5, VWF-FP K1116C mutant (albumin-fused von …); assay: as above
Method: as §1

B1: Factor VIII SingleChain T1654C mutant (other)
chain: ATRRYYLGAVELSWDYMQSDLGELPVDARFPPRVPKSFPFNTSVVYKKTLFVEFTDHLFNIAKPRPPWMGLLGPTIQAEVYDTVVITLKNMASHPVSLHAVGVSYWKASEGAEYDDQTSQREKEDDKVFPGGSHTYVWQVLKENGPMASDPLCLTYSYLSHVDLVKDLNSGLIGALLVCREGSLAKEKTQTLHKFILLFAVFDEGKSWHSETKNSLMQDRDAASARAWPKMHTVNGYVNRSLPGLIGCHRKSVYWHVIGMGTTPEVHSIFLEGHTFLVRNHRQASLEISPITFLTAQTLLMDLGQFLLFCHISSHQHDGMEAYVKVDSCPEEPQLRMKNNEEAEDYDDDLTDSEMDVVRFDDDNSPSFIQIRSVAKKHPKTWVHYIAAEEEDWDYAPLVLAPDDRSYKSQYLNNGPQRIGRKYKKVRFMAYTDETFKTREAIQHESGILGPLLYGEVGDTLLIIFKNQASRPYNIYPHGITDVRPLYSRRLPKGVKHLKDFPILPGEIFKYKWTVTVEDGPTKSDPRCLTRYYSSFVNMERDLASGLIGPLLICYKESVDQRGNQIMSDKRNVILFSVFDENRSWYLTENIQRFLPNPAGVQLEDPEFQASNIMHSINGYVFDSLQLSVCLHEVAYWYILSIGAQTDFLSVFFSGYTFKHKMVYEDTLTLFPFSGETVFMSMENPGLWILGCHNSDFRNRGMTALLKVSSCDKNTGDYYEDSYEDISAYLLSKNNAIEPRSFSQNSRHRSTRQKQFNATTIPENTCLQSDQEEIDYDDTISVEMKKEDFDIYDEDENQSPRSFQKKTRHYFIAAVERLWDYGMSSSPHVLRNRAQSGSVPQFKKVVFQEFTDGSFTQPLYRGELNEHLGLLGPYIRAEVEDNIMVTFRNQASRPYSFYSSLISYEEDQRQGAEPRKNFVKPNETKTYFWKVQHHMAPTKDEFDCKAWAYFSDVDLEKDVHSGLIGPLLVCHTNTLNPAHGRQVTVQEFALFFTIFDETKSWYFTENMERNCRAPCNIQMEDPTFKENYRFHAINGYIMDTLPGLVMAQDQRIRWYLLSMGSNENIHSIHFSGHVFTVRKKEEYKMALYNLYPGVFETVEMLPSKAGIWRVECLIGEHLHAGMSTLFLVYSNKCQTPLGMASGHIRDFQITASGQYGQWAPKLARLHYSGSINAWSTKEPFSWIKVDLLAPMIIHGIKTQGARQKFSSLYISQFIIMYSLDGKKWQTYRGNSTGTLMVFFGNVDSSGIKHNIFNPPIIARYIRLHPTHYSIRSTLRMELMGCDLNSCSMPLGMESKAISDAQITASSYFTNMFATWSPSKARLHLQGRSNAWRPQVNNPKEWLQVDFQKTMKVTGVTTQGVKSLLTSMYVKEFLISSSQDGHQWTLFFQNGKVKVFQGNQDSFTPVVNSLDPPLLTRYLRIHPQSWVHQIALRMEVLGCEAQDLY
notes: Single-chain FVIII with partial B-domain deletion (per WO 2004/067566); also called FVIII-SC T1654C; Cys residue at FVIII aa position 1654
ratio covalent FVIII/Total FVIII activity [1]: 1.59 | ratio covalent FVIII/Total FVIII activity [2]: 1.14 | ratio covalent FVIII/Total FVIII antigen [3]: 0.97 | ratio covalent FVIII/Total FVIII antigen [4]: 0.85 | covalent FVIII [5]: 409 amU/ml | covalent FVIII [6]: 424 amU/ml

B3: Factor VIII SingleChain D1681C mutant (other)
chain: B1 chain with C766T, D793C
notes: Single-chain FVIII with partial B-domain deletion; also called FVIII-SC D1681C; Cys residue at FVIII aa position 1681
ratio covalent FVIII/Total FVIII activity [7]: 1.5 | ratio covalent FVIII/Total FVIII activity [9]: 0.6 | ratio covalent FVIII/Total FVIII antigen [10]: 1.55 | ratio covalent FVIII/Total FVIII antigen [12]: 2.23 | covalent FVIII [13]: 87 amU/ml | covalent FVIII [15]: 1440 amU/ml

B5: Factor VIII SingleChain E1684C mutant (other)
chain: B1 chain with C766T, E796C
notes: Single-chain FVIII with partial B-domain deletion; also called FVIII-SC E1684C; Cys residue at FVIII aa position 1684
ratio covalent FVIII/Total FVIII activity [7]: 1.05 | ratio covalent FVIII/Total FVIII activity [9]: 0.38 | ratio covalent FVIII/Total FVIII activity [2]: 0.88 | ratio covalent FVIII/Total FVIII antigen [10]: 0.69 | ratio covalent FVIII/Total FVIII antigen [12]: 1.53 | ratio covalent FVIII/Total FVIII antigen [4]: 3.15 | covalent FVIII [13]: 491 amU/ml | covalent FVIII [15]: 1150 amU/ml | covalent FVIII [6]: 741 amU/ml

B7: Factor VIII SingleChain D1683C mutant (other)
chain: B1 chain with C766T, D795C
notes: Single-chain FVIII with partial B-domain deletion; also called FVIII-SC D1683C; Cys residue at FVIII aa position 1683
ratio covalent FVIII/Total FVIII activity [7]: 4.07 | ratio covalent FVIII/Total FVIII activity [9]: 0.42 | ratio covalent FVIII/Total FVIII antigen [10]: 3.07 | ratio covalent FVIII/Total FVIII antigen [12]: 1.76 | covalent FVIII [13]: 2210 amU/ml | covalent FVIII [15]: 1350 amU/ml

B8: Factor VIII SingleChain E1682C mutant (other)
chain: B1 chain with C766T, E794C
notes: Single-chain FVIII with partial B-domain deletion; also called FVIII-SC E1682C; Cys residue at FVIII aa position 1682
ratio covalent FVIII/Total FVIII activity [7]: 2.11 | ratio covalent FVIII/Total FVIII activity [9]: 0.34 | ratio covalent FVIII/Total FVIII antigen [10]: 2.23 | ratio covalent FVIII/Total FVIII antigen [12]: 1.23 | covalent FVIII [13]: 328 amU/ml | covalent FVIII [15]: 488 amU/ml

Further lines, results first:

ratio covalent FVIII/Total FVIII activity [7]: 1.03 | ratio covalent FVIII/Total FVIII activity [8]: 1.21 | ratio covalent FVIII/Total FVIII activity [9]: 0.86 | ratio covalent FVIII/Total FVIII activity [2]: 0.76 | ratio covalent FVIII/Total FVIII antigen [10]: 0.51 | ratio covalent FVIII/Total FVIII antigen [11]: 0.64 | ratio covalent FVIII/Total FVIII antigen [12]: 5.24 | ratio covalent FVIII/Total FVIII antigen [4]: 5.43 | covalent FVIII [13]: 506 amU/ml | covalent FVIII [14]: 1640 amU/ml | covalent FVIII [15]: 2740 amU/ml | covalent FVIII [6]: 693 amU/ml
B2: Factor VIII SingleChain Q1686C mutant (other)
chain: B1 chain with C766T, Q798C
notes: Single-chain FVIII with partial B-domain deletion; also called FVIII-SC Q1686C; Cys residue at FVIII aa position 1686

ratio covalent FVIII/Total FVIII activity [9]: 1.66 | ratio covalent FVIII/Total FVIII antigen [12]: 0.79 | covalent FVIII [15]: 1080 amU/ml
B4: Factor VIII SingleChain F1677C mutant (other)
chain: B1 chain with C766T, F789C
notes: Single-chain FVIII with partial B-domain deletion; also called FVIII-SC F1677C; Cys residue at FVIII aa position 1677

ratio covalent FVIII/Total FVIII activity [7]: 1.44 | ratio covalent FVIII/Total FVIII activity [2]: 1.05 | ratio covalent FVIII/Total FVIII antigen [10]: 0.49 | ratio covalent FVIII/Total FVIII antigen [4]: 2.05 | covalent FVIII [13]: 390 amU/ml | covalent FVIII [6]: 843 amU/ml
B6: Factor VIII SingleChain S1687C mutant (other)
chain: B1 chain with C766T, S799C
notes: Single-chain FVIII with partial B-domain deletion; also called FVIII-SC S1687C; Cys residue at FVIII aa position 1687

ratio covalent FVIII/Total FVIII activity [2]: 0.44 | ratio covalent FVIII/Total FVIII antigen [4]: 1 | covalent FVIII [6]: 435 amU/ml
B9: Factor VIII SingleChain Q1656C mutant (other)
chain: B1 chain with C766T, Q768C
notes: Single-chain FVIII with partial B-domain deletion; also called FVIII-SC Q1656C; Cys residue at FVIII aa position 1656

ratio covalent FVIII/Total FVIII activity [1]: 1.26 | ratio covalent FVIII/Total FVIII activity [9]: 1.12 | ratio covalent FVIII/Total FVIII antigen [3]: 1.14 | ratio covalent FVIII/Total FVIII antigen [12]: 0.85 | covalent FVIII [5]: 398 amU/ml | covalent FVIII [15]: 992 amU/ml
B10: Factor VIII SingleChain I1679C mutant (other)
chain: B1 chain with C766T, I791C
notes: Single-chain FVIII with partial B-domain deletion; also called FVIII-SC I1679C mutant; Cys residue at FVIII aa position 1679
